Laboratory results from patent US20250312444A1 (BEIJING TUO JIE BIOPHARMACEUTICAL, published 2025).
Where two headings read alike, the source gives them in different places.

Tests used:
Assay in all cases: SPR Biacore T200, antibody captured by anti-His, albumin as analyte
rat serum albumin = target: T1, rat serum albumin (rat)
T1 chain: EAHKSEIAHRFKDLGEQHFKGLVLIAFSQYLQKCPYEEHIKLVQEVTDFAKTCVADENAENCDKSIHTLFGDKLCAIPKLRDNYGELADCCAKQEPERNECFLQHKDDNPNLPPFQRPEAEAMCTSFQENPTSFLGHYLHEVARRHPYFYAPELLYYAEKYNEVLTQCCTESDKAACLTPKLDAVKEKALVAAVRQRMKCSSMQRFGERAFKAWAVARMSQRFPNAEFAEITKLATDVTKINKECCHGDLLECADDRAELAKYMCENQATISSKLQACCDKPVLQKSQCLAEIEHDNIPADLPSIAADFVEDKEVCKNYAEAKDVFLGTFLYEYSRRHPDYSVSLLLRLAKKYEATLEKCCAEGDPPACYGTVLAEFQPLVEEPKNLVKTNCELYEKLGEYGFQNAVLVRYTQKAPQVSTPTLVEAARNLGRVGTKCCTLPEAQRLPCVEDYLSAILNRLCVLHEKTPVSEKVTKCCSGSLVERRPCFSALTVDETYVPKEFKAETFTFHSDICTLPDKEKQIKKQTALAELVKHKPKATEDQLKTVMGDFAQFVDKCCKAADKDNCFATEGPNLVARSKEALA
Method: (§1) The anti-HSA antibody 7_Hu_10-6his was transiently expressed in HEK293E cells. After affinity purification with a nickel column, the affinity constants of the antibody for human, monkey, mouse, rat, dog and rabbit albumins were determined using a Biacore T200 (GE Healthcare) instrument. Firstly, amino coupling was performed on a CM5 S series chip (GE, Cat. 29-1049-88) by using an amino coupling kit (GE, Cat. BR-1000-50) and a His capture kit (GE, Cat. 28-9950-56) according to the kit manuals. The surface response value reached about 10000 RU. The chip was then blocked with ethanolamine for later use. The 6His-tagged humanized anti-HSA antibodies were each captured onto the anti-his chip through affinity. Then, different concentrations of human, monkey, mouse, rat, dog and rabbit albumins were flowed over the surface of the chip, and the reaction signals were detected in real-time using the Biacore instrument to obtain the association and dissociation curves. Finally, fitting was performed with a Langmuir 1:1 binding model using BIAevaluation version 4.1, GE software to obtain the affinity constants. The buffer used in the experiment was an HBS-EP solution (10 mM HEPES, 150 mM NaCl, 3 mM EDTA, 0.05% P20, pH 7.4, GE, Cat. #BR-1006-69). 20 After the end of each cycle, the chip was regenerated using glycine-hydrochloric acid (pH 1.5) (GE, Cat. #BR-1003-54).

[1] = target: human serum albumin (HSA) (human)
Method: as §1

[2] = target: T2, monkey serum albumin (CySA) (monkey)
T2 chain: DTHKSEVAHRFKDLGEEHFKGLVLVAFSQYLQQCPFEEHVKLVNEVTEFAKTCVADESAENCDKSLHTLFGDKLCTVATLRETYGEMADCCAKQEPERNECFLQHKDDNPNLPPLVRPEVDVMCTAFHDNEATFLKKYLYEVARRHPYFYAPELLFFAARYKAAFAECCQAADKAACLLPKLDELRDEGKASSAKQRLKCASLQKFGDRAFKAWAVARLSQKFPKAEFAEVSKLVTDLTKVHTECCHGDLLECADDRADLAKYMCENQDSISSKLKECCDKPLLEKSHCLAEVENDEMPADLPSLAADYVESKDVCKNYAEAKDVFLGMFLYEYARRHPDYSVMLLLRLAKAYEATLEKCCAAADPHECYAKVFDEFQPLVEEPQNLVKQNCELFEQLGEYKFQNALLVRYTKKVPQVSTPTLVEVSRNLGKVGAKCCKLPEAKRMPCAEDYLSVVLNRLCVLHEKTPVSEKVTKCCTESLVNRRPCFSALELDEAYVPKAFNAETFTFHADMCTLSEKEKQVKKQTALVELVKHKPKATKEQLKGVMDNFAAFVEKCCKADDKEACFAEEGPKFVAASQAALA
Method: as §1

[3] = target: mouse serum albumin (mSA) (mouse)
Method: as §1

rabbit serum albumin = target: T3, rabbit serum albumin (rabbit, UniProt P49065 25-608)
T3 construct: also called Rabbit SA; rabbit albumin
Method: as §1

dog serum albumin = target: T4, dog serum albumin (dog, UniProt P49822 25-608)
T4 construct: also called Dog SA; dog albumin
Method: as §1

[4] = target: human serum albumin (HSA) (human); remark: listed apart in the source
Method: as §1, with “The” for “The anti-HSA antibody 7_Hu_10-6his was transiently expressed in HEK293E cells. After affinity purification with a nickel column, the”, “6His-tagged humanized anti-HSA antibodies” for “antibody”, “monkey” for “monkey, mouse, rat, dog”, “mouse” for “rabbit”, “#BR-1006-69).” for “#BR-1006-69). 20”

[5] = target: T2, monkey serum albumin (CySA)
Method: as §1, with “The” for “The anti-HSA antibody 7_Hu_10-6his was transiently expressed in HEK293E cells. After affinity purification with a nickel column, the”, “6His-tagged humanized anti-HSA antibodies” for “antibody”, “monkey” for “monkey, mouse, rat, dog”, “mouse” for “rabbit”, “#BR-1006-69).” for “#BR-1006-69). 20”

[6] = target: mouse serum albumin (mSA) (mouse); remark: listed apart in the source
Method: as §1, with “The” for “The anti-HSA antibody 7_Hu_10-6his was transiently expressed in HEK293E cells. After affinity purification with a nickel column, the”, “6His-tagged humanized anti-HSA antibodies” for “antibody”, “monkey” for “monkey, mouse, rat, dog”, “mouse” for “rabbit”, “#BR-1006-69).” for “#BR-1006-69). 20”

Kd (rat serum albumin): 158 nM | koff (rat serum albumin): 0.00461 s⁻¹ | kon (rat serum albumin): 29200 M⁻¹ s⁻¹ | Kd [1]: 10.6 nM | koff [1]: 0.000683 s⁻¹ | kon [1]: 64700 M⁻¹ s⁻¹ | Kd [2]: 14.5 nM | koff [2]: 0.000697 s⁻¹ | kon [2]: 47900 M⁻¹ s⁻¹ | Kd [3]: 653 nM | koff [3]: 0.0254 s⁻¹ | kon [3]: 38900 M⁻¹ s⁻¹ | binding result (rabbit serum albumin): no binding | Kd (dog serum albumin): 342 nM | koff (dog serum albumin): 0.0211 s⁻¹ | kon (dog serum albumin): 61700 M⁻¹ s⁻¹ | Kd [4]: 11.5 nM | koff [4]: 0.000347 s⁻¹ | kon [4]: 30100 M⁻¹ s⁻¹ | Kd [5]: 31 nM | koff [5]: 0.000545 s⁻¹ | kon [5]: 17600 M⁻¹ s⁻¹ | Kd [6]: 328 nM | koff [6]: 0.0196 s⁻¹ | kon [6]: 59700 M⁻¹ s⁻¹
B1: #7_Hu_10-6His (VHH)
VHH: EVQLLESGGGLVQPGGSLRLSCAASGFTFLTSCMGWFRQAPGKEREGVSSIYTVGGSTFYTNSVKGRFTISRDNSKNTLYLQMNSLRAEDTAVYYCAAGSPARCRLRDPTTFDYWGQGTLVTVSS
